The supplement of paper PMC11780869

Test system: Bacillus subtilis
Experiment: cleaved RNA product abundance (RNA/gDNA barcode ratio) relative to median wild-type variant (ratio to wild type); higher = more accumulation of the downstream cleavage product
Details: cleavage site: cggR-gapA (positions -7 to +36 mutated)
In short: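 The B. subtilis chromosome carried reporter mRNAs, truncated aprE or tetM, containing barcoded RNase Y cleavage-site windows mutagenized using oligos with a 9% error rate. After growth in LB at 37°C from OD600 0.0003 to 0.3, cleaved RNA was gel-selected, reverse transcribed and barcode-sequenced next to genomic DNA barcodes, with UMI collapsing. Each construct's RNA:gDNA barcode ratio was scaled to the median construct with the unmutated site. That scaled ratio is reported as cleaved product abundance.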

[1] = experiment (reporter, strain, medium): exp 2b: truncated aprE reporter, strain BJT200
[2] = experiment (reporter, strain, medium): exp 4a: truncated aprE reporter, strain BJT201 with 2% xylose (RNase J1 expressed)
[3] = experiment (reporter, strain, medium): exp 6: tetM reporter, strain 168

Sequence | cleaved RNA product abundance [1] | cleaved RNA product abundance [2] | cleaved RNA product abundance [3]
ACAGACGAAGGAGCCGCAAAGAAGTTATTAAGGGATGACTAAACCCTCAATATAAATATCTCTCACTTATTTAAA | 0.197 | 0.303 | –
ACAGACGAAGGAGCCGCAAAGAAGTTATTAAGGGATGACTAATACCTCAATATAAATATCTCTCACTTATTTAAA | – | 0.0872 | –
ACAGACGAAGGAGCCGCAAAGAAGTTATTAAGGGATGACTAATCCATCAATATAAATATCTCTCACTTATTTAAA | 0.112 | 0.154 | –
ACAGACGAAGGAGCCGCAAAGAAGTTATTAAGGGATGACTAATCCCACAATATAAATATCTCTCACTTATTTAAA | 0.157 | 0.197 | –
ACAGACGAAGGAGCCGCAAAGAAGTTATTAAGGGATGACTAATCCCTAAATATAAATATCTCTCACTTATTTAAA | – | 0.359 | –
ACAGACGAAGGAGCCGCAAAGAAGTTATTAAGGGATGACTAATCCCTCAAAATAAATATCTCTCACTTATTTAAA | 0.192 | – | –
ACAGACGAAGGAGCCGCAAAGAAGTTATTAAGGGATGACTAATCCCTCAAGATAAATATCTCTCACTTATTTAAA | – | 0.247 | –
ACAGACGAAGGAGCCGCAAAGAAGTTATTAAGGGATGACTAATCCCTCAATATAAATATCTCTCACTTATTTAAA | 0.603 | 0.679 | 0.978
ACAGACGAAGGAGCCGCAAAGAAGTTATTAAGGGATGACTAATCCCTCAATATAATTATCTCTCACTTATTTAAA | – | 0.282 | –
ACAGACGAAGGAGCCGCAAAGAAGTTATTAAGGGATGACTAATCCCTCAATATATATATCTCTCACTTATTTAAA | 0.293 | – | –
ACAGACGAAGGAGCCGCAAAGAAGTTATTAAGGGATGACTAATCCCTCATTATAAATATCTCTCACTTATTTAAA | 0.155 | 0.208 | –
ACAGACGAAGGAGCCGCAAAGAAGTTATTAAGGGATGACTAATCCCTCTATATAAATATCTCTCACTTATTTAAA | – | 0.337 | –
ACAGACGAAGGAGCCGCAAAGAAGTTATTAAGGGATGACTAATCCGTCAATATAAATATCTCTCACTTATTTAAA | – | 0.213 | –
ACAGACGAAGGAGCCGCAAAGAAGTTATTAAGGGATGACTAATCCTTCAATATAAATATCTCTCACTTATTTAAA | – | 0.251 | –
ACAGACGAAGGAGCCGCAAAGAAGTTATTAAGGGATGACTAATTCCTCAATATAAATATCTCTCACTTATTTAAA | – | 0.314 | –
ACAGACGAAGGAGCCGCAAAGAAGTTATTAAGGGATGACTACTCCCTCAATATAAATATCTCTCACTTATTTAAA | – | 0.446 | –
ACAGACGAAGGAGCCGCAAAGAAGTTATTAAGGGATGACTATTCCCTCAATATAAATATCTCTCACTTATTTAAA | – | 0.804 | –
ACAGACGAAGGAGCCGCAAAGAAGTTATTAAGGGATGAGAAATCCCTCAATATAAATATCTCTCACTTATTTAAA | – | 0.604 | –
ACAGACGAAGGAGCCGCAAAGAAGTTATTAAGGGATGAGTAAACCCTCAATATAAATATCTCTCACTTATTTAAA | – | 0.35 | –
ACAGACGAAGGAGCCGCAAAGAAGTTATTAAGGGATGAGTAATCACTCAATATAAATATCTCTCACTTATTTAAA | – | 0.264 | –
ACAGACGAAGGAGCCGCAAAGAAGTTATTAAGGGATGAGTAATCCCTCAATATAAATATCTCTCACTTATTTAAA | 0.484 | 0.596 | 0.74

Sequence | cleaved RNA product abundance [1] | cleaved RNA product abundance [2] | cleaved RNA product abundance [3]
ACAGACGAAGGAGCCGCAAAGAAGTTATTAAGGGATGAGTAATCCCTCATTATAAATATCTCTCACTTATTTAAA | – | 0.185 | –
ACAGACGAAGGAGCCGCAAAGAAGTTATTAAGGGATGAGTAATCCCTCCATATAAATATCTCTCACTTATTTAAA | – | 0.164 | –
ACAGACGAAGGAGCCGCAAAGAAGTTATTAAGGGATGAGTAATCCCTTAATATAAATATCTCTCACTTATTTAAA | – | 0.601 | –
ACAGACGAAGGAGCCGCAAAGAAGTTATTAAGGGATGAGTAATCCTTCAATATAAATATCTCTCACTTATTTAAA | – | 0.346 | –
ACAGACGAAGGAGCCGCAAAGAAGTTATTAAGGGATGAGTAATTCCTCAATATAAATATCTCTCACTTATTTAAA | – | 0.452 | –
ACAGACGAAGGAGCCGCAAAGAAGTTATTAAGGGATGATAAATCCCTCAATATAAATATCTCTCACTTATTTAAA | 0.648 | 0.853 | –
ACAGACGAAGGAGCCGCAAAGAAGTTATTAAGGGATGATAATCCCTCAATATAAATATCTCTCACTTATTTAAAG | – | 0.861 | –
ACAGACGAAGGAGCCGCAAAGAAGTTATTAAGGGATGATGAATCCCTCAATATAAATATCTCTCACTTATTTAAA | – | 0.766 | –
ACAGACGAAGGAGCCGCAAAGAAGTTATTAAGGGATGATTAAACCCTCAATATAAATATCTCTCACTTATTTAAA | – | 0.362 | –
ACAGACGAAGGAGCCGCAAAGAAGTTATTAAGGGATGATTAATACCTCAATATAAATATCTCTCACTTATTTAAA | – | 0.134 | –
ACAGACGAAGGAGCCGCAAAGAAGTTATTAAGGGATGATTAATCACTCAATATAAATATCTCTCACTTATTTAAA | 0.152 | – | –
ACAGACGAAGGAGCCGCAAAGAAGTTATTAAGGGATGATTAATCCATCAATATAAATATCTCTCACTTATTTAAA | 0.124 | – | –
ACAGACGAAGGAGCCGCAAAGAAGTTATTAAGGGATGATTAATCCCACAATATAAATATCTCTCACTTATTTAAA | – | 0.276 | –
ACAGACGAAGGAGCCGCAAAGAAGTTATTAAGGGATGATTAATCCCGCAATATAAATATCTCTCACTTATTTAAA | – | 0.0868 | –
ACAGACGAAGGAGCCGCAAAGAAGTTATTAAGGGATGATTAATCCCTAAATATAAATATCTCTCACTTATTTAAA | – | 0.599 | –
ACAGACGAAGGAGCCGCAAAGAAGTTATTAAGGGATGATTAATCCCTCAAAATAAATATCTCTCACTTATTTAAA | 0.294 | 0.282 | –
ACAGACGAAGGAGCCGCAAAGAAGTTATTAAGGGATGATTAATCCCTCAAGATAAATATCTCTCACTTATTTAAA | – | 0.304 | –
ACAGACGAAGGAGCCGCAAAGAAGTTATTAAGGGATGATTAATCCCTCAATAGAAATATCTCTCACTTATTTAAA | – | 0.0935 | –
ACAGACGAAGGAGCCGCAAAGAAGTTATTAAGGGATGATTAATCCCTCAATATAAACATCTCTCACTTATTTAAA | – | 0.559 | –
ACAGACGAAGGAGCCGCAAAGAAGTTATTAAGGGATGATTAATCCCTCAATATAAATATCTCTCACTTATTTAAA | 0.75 | 0.844 | 0.94
ACAGACGAAGGAGCCGCAAAGAAGTTATTAAGGGATGATTAATCCCTCAATATCAATATCTCTCACTTATTTAAA | – | 0.0525 | –
